{"source": "patent US20240226314A1", "about": "(Sanofi, published 2024)", "binders": {"B1": {"name": "531-1L2_mouse mAb (antibody, IgG1, V domains shown)", "VH": "QVQLQQPGAELVSPGASVKLSCKASDYTFTRYWLNWVKQRPGQGLEWIGMIDPSVSECHYSQMFKDKATLTVDKSSSTAYMLLNSLTSEDSAVYYCSQIRLPYYYAMDSWGQGTSVTVSS", "VL": "DIQMTQTPSSLSASLGDRVTISCRASQDINSFLNWYQQKPDGTVKLLIYYTSRLHSGVPSRFSGSGSGTDYSLTIGNLDQEDIATYFCQQGNTLPRTFGGGTKLELK", "notes": "constant regions are not"}}, "key": {"[1]": {"target": "His-tagged mouse TfR ectodomain (mTFRC_89_764; mature protein) (mouse, UniProt Q62351 89-763)", "sequence (Q62351 other isoform, or with tags, fused parts or gaps)": "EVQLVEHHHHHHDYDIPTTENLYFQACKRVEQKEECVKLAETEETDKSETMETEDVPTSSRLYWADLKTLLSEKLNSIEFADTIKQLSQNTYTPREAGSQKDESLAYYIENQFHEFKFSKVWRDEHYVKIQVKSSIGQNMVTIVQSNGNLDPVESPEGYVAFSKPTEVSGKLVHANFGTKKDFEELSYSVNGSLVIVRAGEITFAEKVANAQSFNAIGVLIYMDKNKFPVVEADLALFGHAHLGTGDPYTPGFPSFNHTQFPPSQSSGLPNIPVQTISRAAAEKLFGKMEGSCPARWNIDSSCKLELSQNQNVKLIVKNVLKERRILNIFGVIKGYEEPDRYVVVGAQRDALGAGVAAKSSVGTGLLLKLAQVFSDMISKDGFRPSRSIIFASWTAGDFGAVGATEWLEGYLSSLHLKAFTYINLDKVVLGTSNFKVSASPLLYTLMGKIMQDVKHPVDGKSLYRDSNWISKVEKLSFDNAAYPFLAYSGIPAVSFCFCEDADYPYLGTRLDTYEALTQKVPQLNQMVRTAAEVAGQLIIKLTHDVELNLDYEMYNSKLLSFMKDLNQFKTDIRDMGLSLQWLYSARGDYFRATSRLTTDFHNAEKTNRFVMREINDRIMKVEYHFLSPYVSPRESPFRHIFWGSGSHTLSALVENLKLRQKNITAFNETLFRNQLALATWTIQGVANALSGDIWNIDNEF", "assay": "SPR, His-tagged mTfR ectodomain captured on anti-His", "method": "(§1) Experiments were run on Bruker MASS-2 instrument with HBS-EP+ as running buffer and sample diluent (Cytiva Life Sciences, #BR100826). HCA sensorchips (Bruker, #1862614) were immobilized with anti his antibody (His capture kit, Cytiva Life Sciences, #28995056) following provider's instructions. About 10 000 RU of anti his was obtained. […] Surface was regenerated with one 1 min pulse of 10 mM Glycine-HCl pH1.5."}, "[2]": {"target": "T1, His-tagged human TfR ectodomain (hTFRC_89-760_G142S; mature protein) (human, UniProt P02786 89-760)", "T1 construct": "It carries the G142S haplotype; also called hTfR ectodomain", "assay": "SPR, His-tagged TfR ectodomain captured on anti-His, 1:1 fit", "method": "(§2) Binding of the humanized Fab variants to human, cynomolgus and mouse TfR was assessed using SPR at pH 7.4. Experiments were run on a Bruker MASS-2 instrument with HBS-EP+ as running buffer and sample diluent (Cytiva Life Sciences, #BR100826). HCA sensor chips (Bruker, #1862614) were immobilized with anti-His antibody (His capture kit, Cytiva Life Sciences, #28995056) following manufacturer's instructions. About 10,000 RU of anti-His was obtained. His-tagged hTfR ectodomain (SEQ ID NO: 39), cTfR ectodomain (SEQ ID NO: 40) or mouse TfR ectodomain (SEQ ID NO: 41) (5 μg/ml) was captured for 1 min at 10 μL/min. Concentration series of the humanized Fab variants were then injected for 4 min at 30 μL/min over hTfR surfaces and dissociation was monitored for 5 min. Surface was regenerated with one 1 min pulse of 10 mM glycine-HCl at pH 1.5."}, "[3]": {"target": "T2, His-tagged cynomolgus monkey TfR ectodomain (cyTFRC_89_760; mature protein) (cynomolgus monkey (Macaca fascicularis), UniProt Q5RDH6 89-760 (Pongo abelii entry))", "T2 construct": "also called cTfR; cTfR ectodomain", "T2 chain": "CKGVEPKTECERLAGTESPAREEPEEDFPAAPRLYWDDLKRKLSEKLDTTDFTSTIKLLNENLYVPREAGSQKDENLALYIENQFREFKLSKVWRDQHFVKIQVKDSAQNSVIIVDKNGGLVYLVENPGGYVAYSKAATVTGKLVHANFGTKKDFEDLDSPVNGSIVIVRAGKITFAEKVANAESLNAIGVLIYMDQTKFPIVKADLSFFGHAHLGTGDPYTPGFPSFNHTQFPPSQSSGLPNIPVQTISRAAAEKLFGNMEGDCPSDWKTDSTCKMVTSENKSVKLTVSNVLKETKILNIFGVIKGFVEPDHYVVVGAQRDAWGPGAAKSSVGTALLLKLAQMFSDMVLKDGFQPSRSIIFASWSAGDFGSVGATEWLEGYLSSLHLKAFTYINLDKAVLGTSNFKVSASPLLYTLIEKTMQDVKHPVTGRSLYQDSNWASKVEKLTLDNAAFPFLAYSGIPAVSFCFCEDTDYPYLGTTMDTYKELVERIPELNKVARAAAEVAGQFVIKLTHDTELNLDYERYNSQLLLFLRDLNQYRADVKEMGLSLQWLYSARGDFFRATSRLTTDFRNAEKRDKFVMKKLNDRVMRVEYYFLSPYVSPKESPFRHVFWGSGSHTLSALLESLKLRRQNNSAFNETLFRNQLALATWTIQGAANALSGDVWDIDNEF", "assay": "SPR, His-tagged TfR ectodomain captured on anti-His, 1:1 fit", "method": "as §2"}, "[4]": {"target": "T1, His-tagged human TfR ectodomain …", "assay": "SPR, His-tagged TfR ectodomain captured on anti-His, 1:1 fit", "method": "as §1", "remark": "listed apart in the source"}, "[5]": {"target": "T2, His-tagged cynomolgus monkey TfR …", "assay": "SPR, His-tagged TfR ectodomain captured on anti-His, 1:1 fit", "method": "as §1"}, "[6]": {"target": "T2, His-tagged cynomolgus monkey TfR …", "assay": "SPR; KD on cTfR against KD on hTfR", "method": "as §2"}, "[7]": {"target": "T2, His-tagged cynomolgus monkey TfR …", "assay": "SPR; KD on cTfR against KD on hTfR", "method": "as §1"}}, "note": "Where two headings read alike, the source gives them in different places."}
{"binder": "B1", "values": [{"measurement": "binding result", "setting": "[1]", "value": "no binding"}, {"measurement": "Kd", "setting": "[2]", "value": 6.93, "unit": "nM"}, {"measurement": "Kd", "setting": "[3]", "value": 27, "unit": "nM"}, {"measurement": "Kd", "setting": "[4]", "value": 6.9, "unit": "nM"}, {"measurement": "Kd", "setting": "[5]", "value": 27, "unit": "nM"}, {"measurement": "Cynomolgus/human KD ratio", "setting": "[6]", "value": 3.9}, {"measurement": "Cynomolgus/human KD ratio", "setting": "[7]", "value": 3.9}]}
